The results in this text go back to patent US20200262867A1 (WNTRX PHARMACEUTICALS, published 2020).

Bridges are numbered along the chain shown (N, C = ends). [ ]: non-standard residue; d: D form. Phe(4-Cl) = N[C@@H](Cc1ccc(Cl)cc1)C(=O)O; 2Nal = N[C@@H](Cc1ccc2ccccc2c1)C(=O)O; NMeCha = CN[C@@H](CC1CCCCC1)C(=O)O; NMeR = CN[C@@H](CCCNC(=N)N)C(=O)O; NMeE = CN[C@@H](CCC(=O)O)C(=O)O; NMeQ = CN[C@@H](CCC(N)=O)C(=O)O; Cha = N[C@@H](CC1CCCCC1)C(=O)O; NMeD = CN[C@@H](CC(=O)O)C(=O)O; Cba = N[C@@H](CC1CCC1)C(=O)O; Tle = CC(C)(C)[C@H](N)C(=O)O; S5 = C=CCCC[C@](C)(N)C(=O)O

The chains are these.
T1: β-catenin (UniProt P35222 1-781, limits assumed)
T1 construct: also called beta-catenin
T1 sequence (looked up): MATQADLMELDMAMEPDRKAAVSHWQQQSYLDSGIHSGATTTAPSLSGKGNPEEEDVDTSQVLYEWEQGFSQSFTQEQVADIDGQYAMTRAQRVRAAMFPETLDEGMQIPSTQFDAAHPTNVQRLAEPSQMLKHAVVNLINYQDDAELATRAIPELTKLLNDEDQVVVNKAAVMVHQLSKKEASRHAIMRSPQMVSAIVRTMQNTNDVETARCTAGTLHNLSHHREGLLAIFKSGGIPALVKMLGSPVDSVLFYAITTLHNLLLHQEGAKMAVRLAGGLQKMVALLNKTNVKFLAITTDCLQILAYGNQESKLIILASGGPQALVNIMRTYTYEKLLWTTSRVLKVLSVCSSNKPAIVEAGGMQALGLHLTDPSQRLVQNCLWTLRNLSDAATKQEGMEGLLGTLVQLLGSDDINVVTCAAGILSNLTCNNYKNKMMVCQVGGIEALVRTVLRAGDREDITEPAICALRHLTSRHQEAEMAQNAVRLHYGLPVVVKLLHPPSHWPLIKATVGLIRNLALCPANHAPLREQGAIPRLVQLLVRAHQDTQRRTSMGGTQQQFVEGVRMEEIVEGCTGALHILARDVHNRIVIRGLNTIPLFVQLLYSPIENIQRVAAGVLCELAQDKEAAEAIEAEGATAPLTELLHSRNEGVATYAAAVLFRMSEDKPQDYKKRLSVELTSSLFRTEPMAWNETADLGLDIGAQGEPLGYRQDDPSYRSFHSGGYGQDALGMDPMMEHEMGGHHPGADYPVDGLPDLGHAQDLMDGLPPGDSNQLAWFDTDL

B1: SEQ ID NO: 145 (peptide)
peptide: Ac-HRERSLQTLR[S5]IQQ[S5][Cba][2Nal]-NH2
modifications: staple 11-15
SMILES: CC[C@H](C)[C@@H]1NC(=O)[C@@](C)(NC(=O)[C@H](CCCNC(=N)N)NC(=O)[C@H](CC(C)C)NC(=O)[C@@H](NC(=O)[C@H](CCC(N)=O)NC(=O)[C@H](CC(C)C)NC(=O)[C@H](CO)NC(=O)[C@H](CCCNC(=N)N)NC(=O)[C@H](CCC(=O)O)NC(=O)[C@H](CCCNC(=N)N)NC(=O)[C@H](Cc2c[nH]cn2)NC(C)=O)[C@@H](C)O)CCCC=CCCC[C@@](C)(C(=O)N[C@@H](CC2CCC2)C(=O)N[C@@H](Cc2ccc3ccccc3c2)C(N)=O)NC(=O)[C@H](CCC(N)=O)NC(=O)[C@H](CCC(N)=O)NC1=O
B2: SEQ ID NO: 192 (peptide)
peptide: Ac-HRQRSLQTLR[S5]IQR[S5][Tle][2Nal]-NH2
modifications: staple 11-15
SMILES: CC[C@H](C)[C@@H]1NC(=O)[C@@](C)(NC(=O)[C@H](CCCNC(=N)N)NC(=O)[C@H](CC(C)C)NC(=O)[C@@H](NC(=O)[C@H](CCC(N)=O)NC(=O)[C@H](CC(C)C)NC(=O)[C@H](CO)NC(=O)[C@H](CCCNC(=N)N)NC(=O)[C@H](CCC(N)=O)NC(=O)[C@H](CCCNC(=N)N)NC(=O)[C@H](Cc2c[nH]cn2)NC(C)=O)[C@@H](C)O)CCCC=CCCC[C@@](C)(C(=O)N[C@H](C(=O)N[C@@H](Cc2ccc3ccccc3c2)C(N)=O)C(C)(C)C)NC(=O)[C@H](CCCNC(=N)N)NC(=O)[C@H](CCC(N)=O)NC1=O
B3: SEQ ID NO: 157 (peptide)
peptide: Ac-HR[NMeD]RSLQTLR[S5]IQR[S5][Cba][2Nal]-NH2
modifications: staple 11-15
SMILES: CC[C@H](C)[C@@H]1NC(=O)[C@@](C)(NC(=O)[C@H](CCCNC(=N)N)NC(=O)[C@H](CC(C)C)NC(=O)[C@@H](NC(=O)[C@H](CCC(N)=O)NC(=O)[C@H](CC(C)C)NC(=O)[C@H](CO)NC(=O)[C@H](CCCNC(=N)N)NC(=O)[C@H](CC(=O)O)N(C)C(=O)[C@H](CCCNC(=N)N)NC(=O)[C@H](Cc2c[nH]cn2)NC(C)=O)[C@@H](C)O)CCCC=CCCC[C@@](C)(C(=O)N[C@@H](CC2CCC2)C(=O)N[C@@H](Cc2ccc3ccccc3c2)C(N)=O)NC(=O)[C@H](CCCNC(=N)N)NC(=O)[C@H](CCC(N)=O)NC1=O
B4: SEQ ID NO: 146 (peptide)
peptide: Ac-HRERSLQTLR[S5]IQE[S5][Cba][2Nal]-OH
modifications: staple 11-15
SMILES: CC[C@H](C)[C@@H]1NC(=O)[C@@](C)(NC(=O)[C@H](CCCNC(=N)N)NC(=O)[C@H](CC(C)C)NC(=O)[C@@H](NC(=O)[C@H](CCC(N)=O)NC(=O)[C@H](CC(C)C)NC(=O)[C@H](CO)NC(=O)[C@H](CCCNC(=N)N)NC(=O)[C@H](CCC(=O)O)NC(=O)[C@H](CCCNC(=N)N)NC(=O)[C@H](Cc2c[nH]cn2)NC(C)=O)[C@@H](C)O)CCCC=CCCC[C@@](C)(C(=O)N[C@@H](CC2CCC2)C(=O)N[C@@H](Cc2ccc3ccccc3c2)C(=O)O)NC(=O)[C@H](CCC(=O)O)NC(=O)[C@H](CCC(N)=O)NC1=O
B5: SEQ ID NO: 14 (peptide)
peptide: Ac-HRERSLQTLR[S5]IQR[S5][Cba][2Nal]-NH2
modifications: staple 11-15
SMILES: CC[C@H](C)[C@@H]1NC(=O)[C@@](C)(NC(=O)[C@H](CCCNC(=N)N)NC(=O)[C@H](CC(C)C)NC(=O)[C@@H](NC(=O)[C@H](CCC(N)=O)NC(=O)[C@H](CC(C)C)NC(=O)[C@H](CO)NC(=O)[C@H](CCCNC(=N)N)NC(=O)[C@H](CCC(=O)O)NC(=O)[C@H](CCCNC(=N)N)NC(=O)[C@H](Cc2c[nH]cn2)NC(C)=O)[C@@H](C)O)CCCC=CCCC[C@@](C)(C(=O)N[C@@H](CC2CCC2)C(=O)N[C@@H](Cc2ccc3ccccc3c2)C(N)=O)NC(=O)[C@H](CCCNC(=N)N)NC(=O)[C@H](CCC(N)=O)NC1=O
B6: SEQ ID NO: 151 (peptide)
peptide: Ac-HR[NMeE]RSLQTLR[S5]IQR[S5][Cba][2Nal]-NH2
modifications: staple 11-15
SMILES: CC[C@H](C)[C@@H]1NC(=O)[C@@](C)(NC(=O)[C@H](CCCNC(=N)N)NC(=O)[C@H](CC(C)C)NC(=O)[C@@H](NC(=O)[C@H](CCC(N)=O)NC(=O)[C@H](CC(C)C)NC(=O)[C@H](CO)NC(=O)[C@H](CCCNC(=N)N)NC(=O)[C@H](CCC(=O)O)N(C)C(=O)[C@H](CCCNC(=N)N)NC(=O)[C@H](Cc2c[nH]cn2)NC(C)=O)[C@@H](C)O)CCCC=CCCC[C@@](C)(C(=O)N[C@@H](CC2CCC2)C(=O)N[C@@H](Cc2ccc3ccccc3c2)C(N)=O)NC(=O)[C@H](CCCNC(=N)N)NC(=O)[C@H](CCC(N)=O)NC1=O
B7: SEQ ID NO: 179 (peptide)
peptide: Ac-HRQRSLQTLR[S5]IQR[S5][Phe(4-Cl)][2Nal]-NH2
modifications: staple 11-15
SMILES: CC[C@H](C)[C@@H]1NC(=O)[C@@](C)(NC(=O)[C@H](CCCNC(=N)N)NC(=O)[C@H](CC(C)C)NC(=O)[C@@H](NC(=O)[C@H](CCC(N)=O)NC(=O)[C@H](CC(C)C)NC(=O)[C@H](CO)NC(=O)[C@H](CCCNC(=N)N)NC(=O)[C@H](CCC(N)=O)NC(=O)[C@H](CCCNC(=N)N)NC(=O)[C@H](Cc2c[nH]cn2)NC(C)=O)[C@@H](C)O)CCCC=CCCC[C@@](C)(C(=O)N[C@@H](Cc2ccc(Cl)cc2)C(=O)N[C@@H](Cc2ccc3ccccc3c2)C(N)=O)NC(=O)[C@H](CCCNC(=N)N)NC(=O)[C@H](CCC(N)=O)NC1=O
B8: SEQ ID NO: 156 (peptide)
peptide: Ac-HRQRS[Cba]QTLR[S5]IQR[S5][Cba][2Nal]-NH2
modifications: staple 11-15
SMILES: CC[C@H](C)[C@@H]1NC(=O)[C@@](C)(NC(=O)[C@H](CCCNC(=N)N)NC(=O)[C@H](CC(C)C)NC(=O)[C@@H](NC(=O)[C@H](CCC(N)=O)NC(=O)[C@H](CC2CCC2)NC(=O)[C@H](CO)NC(=O)[C@H](CCCNC(=N)N)NC(=O)[C@H](CCC(N)=O)NC(=O)[C@H](CCCNC(=N)N)NC(=O)[C@H](Cc2c[nH]cn2)NC(C)=O)[C@@H](C)O)CCCC=CCCC[C@@](C)(C(=O)N[C@@H](CC2CCC2)C(=O)N[C@@H](Cc2ccc3ccccc3c2)C(N)=O)NC(=O)[C@H](CCCNC(=N)N)NC(=O)[C@H](CCC(N)=O)NC1=O

The target in this experiment is T1, β-catenin. As to the kind of experiment: ALPHA Screen (BCL9/β-catenin).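 Note: bead proximity readout with the polypeptide linked to donor beads and β-catenin fixed on acceptor beads, their binding bringing the beads close enough to emit signal.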
Source text: In this assay, a polypeptide is conjugated to a donor bead and its target protein (i.e., β-catenin) is attached to an acceptor bead. When the two beads are in proximity due to the binding of the polypeptide to the target protein, a signal is generated and the binding affinity of the polypeptide can be quantitatively calculated. The assay may be conducted in the presence or absence of an unconjugated control polypeptide.
One may read the IC50 as the midpoint of a concentration-inhibition curve. Low values mean inhibition by little substance, high ones a need for much substance. Consider Ac-H[NMeR]QRSLQTLR[S5]IQR[S5][Cba][2Nal]-NH2 (staple 11-15) [SEQ ID NO: 166], for which half-maximal inhibition (IC50) was put at 403 nM.
Next, B1: 154 nM; Ac-HRERSLQTLR[S5]IQR[S5]L[2Nal]-NH2 (staple 11-15; not fully specified; printed as HRERSLQTLRXIQRXL(2-Nal)) [SEQ ID NO: 6]: 670 nM; Ac-HRERSLQTLR[S5]IQA[S5]L[2Nal]-NH2 (staple 11-15; not fully specified; printed as HRERSLQTLRXIQAXL(2-Nal)) [SEQ ID NO: 28]: 2000 nM.
For the molecule B2, the IC50 turned out to be 329 nM.
Next, Ac-HR[NMeQ]RSLQTLR[S5]IQR[S5][Tle][2Nal]-NH2 (staple 11-15; also: N-methylglutamine 3: D or L (filing names both)) [SEQ ID NO: 194]: 398 nM; B3: 525 nM; Ac-HRERSLQTL[NMeR][S5]IQR[S5][Cba][2Nal]-OH (staple 11-15; not fully specified) [SEQ ID NO: 152]: 794 nM.
The result for Ac-HRQRS[NMeCha][NMeQ]TLR[S5]IQR[S5][Cha][2Nal]-NH2 (staple 11-15; also: N-MeGln at 7: D or L (both stated)) [SEQ ID NO: 186] reads 232 nM; that for B4, 493 nM.
The result for B5 reads 457 nM; that for B6, 261 nM; that for Ac-HRQRS[Cha][NMeQ]TLR[S5]IQR[S5][Cha][2Nal]-NH2 (staple 11-15; also: N-MeGln at 7: D or L (both stated)) [SEQ ID NO: 185], 223 nM.
The molecule Ac-HRQRTLQTLR[S5]IQR[S5][Cba][2Nal]-NH2 (staple 11-15) [SEQ ID NO: 159] gave an IC50 of 291 nM.
The result for Ac-HRERSLQTLR[S5]IQA[S5][Cba][2Nal]-NH2 (staple 11-15; not fully specified; printed as HRERSLQTLRXIQAX(CBA)(2-Nal)) [SEQ ID NO: 29] reads 1350 nM; that for B7, 59 nM; that for B8, 253 nM.
Next, Ac-HQERSLQTLR[S5]IQR[S5]L[2Nal]-NH2 (staple 11-15; not fully specified; printed as HQERSLQTLRXIQRXL(2-Nal)) [SEQ ID NO: 11]: 2110 nM.
